The text below walks through data of PMC2290040 (The Journal of Cell Biology, 1992).

What all share (test): co-IP
In assay [1] the target is T1, RHL-1 truncated at the carboxy terminus, product of 260 aa (rat, UniProt P02706 1-260, [35S]methionine label).
T1 sequence (looked up): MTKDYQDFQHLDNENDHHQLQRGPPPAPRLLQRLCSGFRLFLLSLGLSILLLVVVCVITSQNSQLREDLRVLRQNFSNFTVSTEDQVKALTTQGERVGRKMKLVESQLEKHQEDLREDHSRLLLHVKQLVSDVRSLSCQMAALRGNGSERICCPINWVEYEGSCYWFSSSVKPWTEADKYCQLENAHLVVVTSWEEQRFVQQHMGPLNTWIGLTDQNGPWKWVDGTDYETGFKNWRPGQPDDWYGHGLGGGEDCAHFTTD

In assay [2] the target is T2, RHL-1 truncated at the carboxy terminus, product of 267 aa (rat, UniProt P02706 1-267, [35S]methionine label).
T2 sequence (looked up): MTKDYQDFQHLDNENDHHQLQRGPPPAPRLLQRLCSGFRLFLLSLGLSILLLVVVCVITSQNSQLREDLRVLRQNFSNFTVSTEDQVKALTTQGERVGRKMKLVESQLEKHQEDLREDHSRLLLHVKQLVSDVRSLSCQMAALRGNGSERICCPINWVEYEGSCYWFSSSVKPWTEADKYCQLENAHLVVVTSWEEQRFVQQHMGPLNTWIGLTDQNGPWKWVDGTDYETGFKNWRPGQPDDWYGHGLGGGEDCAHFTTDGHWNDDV

The target of assay [3] is T3, RHL-1 truncated at the carboxy terminus, product of 204 aa (rat, UniProt P02706 1-204, [35S]methionine label).
T3 sequence (looked up): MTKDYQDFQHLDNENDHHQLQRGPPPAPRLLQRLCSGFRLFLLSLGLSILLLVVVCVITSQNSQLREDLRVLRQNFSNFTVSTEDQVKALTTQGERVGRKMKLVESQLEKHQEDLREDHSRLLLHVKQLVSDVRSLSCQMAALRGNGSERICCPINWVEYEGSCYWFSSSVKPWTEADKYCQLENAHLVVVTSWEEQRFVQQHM

B1: rat hepatic lectin subunit RHL-2/3 (subunit of the rat asialoglycoprotein receptor), full length (natural protein, UniProt P08290 1-301, looked up)
chain: MEKDFQDIQQLDSEENDHQLIGDEEQGSHVQNLRTENPRWGGQPPSRPFPQRLCSKFRLSLLALAFNILLLVVICVVSSQSMQLQKEFWTLKETLSNFSTTTLMEFKALDSHGGSRNDNLTSWETILEKKQKDIKADHSTLLFHLKHFPLDLRTLTCQLAFFLSNGTECCPVNWVEFGGSCYWFSRDGLTWAEADQYCQMENAHLLVINSREEQEFVVKHRGAFHIWIGLTDKDGSWKWVDGTEYRSNFKNWAFTQPDNWQGHEEGGSEDCAEILSDGLWNDNFCQQVNRWACERKRDITY
modifications: [35S]methionine label; glycosylated by the microsomes
Turning to B1, the “percent of RHL-2/3 coimmunoprecipitated, relative to full-length RHL-1” value in assay [1] was 100%; in assay [2], 100%; in assay [3], 88%.
